# Measured values published in US20100260805A1 (CIRCASSIA, published 2010).
# Where two headings read alike, the source gives them in different places.
# T1: DQA1*0102/DQB1*0602 (human, UniProt P01920 33-230, limits assumed)
# T1 construct: human MHC class II allotype
# T1 MHC II alpha: not shown
# T1 MHC II beta: not shown
# T2: DQA1*0102/DQB1*0602 (human), P01920
# T2 chain 1: not shown
# T2 chain 2: not shown
# T3: HLA-DRB1*0701 (human)
# T3 chain 1: not shown
# T3 chain 2: not shown
# T4: HLA-DRB1*1101 (human)
# T4 chain 1: not shown
# T4 chain 2: not shown
# T5: HLA-DRB1*1501 (human)
# T5 chain 1: not shown
# T5 chain 2: not shown
# B1: Fel d 1 peptide EQVAQYKALPVVLENA (peptide)
# peptide: EQVAQYKALPVVLENA
# notes: said to have been tested in an earlier study
# Assays:
# [1] = target: T6, HLA-DRB1*0101 (human); assay: competitive MHC class II binding assay; competitor: control peptide Influenza haemagglutinin 307-319;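 further: each peptide was tested for its capacity to displace a known reference binder from human MHC class II allotypes, and its IC50 is expressed relative to that of the reference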
# T6 construct: human MHC class II allotype
# [2] = target: T7, HLA-DRB1*0401 (human); assay: as above
# T7 construct: human MHC class II allotype
# [3] = target: T8, HLA-DRB1*1101 (human); assay: as above
# T8 construct: human MHC class II allotype
# [4] = target: T1, DQA1*0102/DQB1*0602; assay: competitive MHC class II binding assay; competitor: control peptide Human Insulin B 1-15
# [5] = target: T9, HLA-DRB1*0301 (human); assay: competitive MHC class II binding assay; competitor: control peptide Myco. tuberculosis/leprae hsp 65 2-16
# T9 construct: human MHC class II allotype
# [6] = target: T10, HLA-DRB1*1501 (human); assay: competitive MHC class II binding assay; competitor: control peptide Human myelin basic protein 85-99
# T10 construct: human MHC class II allotype
# [7] = target: T11, HLA-DRB1*0701 (human); assay: competitive MHC class II binding assay; competitor: control peptide Influenza haemagglutinin 307-319;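 further: each peptide was tested for its capacity to displace a known reference binder from human MHC class II allotypes, and its IC50 is expressed relative to that of the reference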
# T11 construct: human MHC class II allotype
# [8] = target: T2, DQA1*0102/DQB1*0602 (human), P01920
# [9] = target: T3, HLA-DRB1*0701 (human)
# [10] = target: T4, HLA-DRB1*1101 (human)
# [11] = target: T5, HLA-DRB1*1501 (human)
# [12] = target: T12, HLA-DRB1*1301 (human); assay: competitive MHC class II binding assay; competitor: control peptide HLA-DQB1*0603 21-36
# T12 construct: human MHC class II allotype
# [13] = target: T10, HLA-DRB1*1501; assay: competitive MHC class II binding assay, high stringency screen; competitor: control peptide Myelin Basic Protein 85-99
binder,measurement,setting,value
RGKPFQLEAVFEANQNT [HDM21B],ratio of IC50 to that of the control peptide,[1],13.5 ratio
same,ratio of IC50 to that of the control peptide,[2],0.78 ratio
same,ratio of IC50 to that of the control peptide,[3],4.1 ratio
DGLEVDVPGIDPNACH (purity 66.7%) [HDM23A],ratio of IC50 to that of the control peptide,[4],0.76 ratio
same,ratio of IC50 to that of the control peptide,[5],347 ratio
REALAQTHSAIAVI [HDM09A],ratio of IC50 to that of the control peptide,[6],200 ratio
same,ratio of IC50 to that of the control peptide,[7],0.49 ratio
same,ratio of IC50 to that of the control peptide,[3],21.1 ratio
KPFQLEAVFEANQNTK [HDM21A],ratio of IC50 to that of the control peptide,[1],200 ratio
same,ratio of IC50 to that of the control peptide,[2],52.2 ratio
same,ratio of IC50 to that of the control peptide,[3],10.3 ratio
DGVLACAIATHAKIR [HDM26A],ratio of IC50 to that of the control peptide,[4],0.61 ratio
same,ratio of IC50 to that of the control peptide,[1],42.3 ratio
same,ratio of IC50 to that of the control peptide,[7],16.3 ratio
KPFQLEAVFEANQNT [HDM21],ratio of IC50 to that of the control peptide,[1],92 ratio
same,ratio of IC50 to that of the control peptide,[2],11.2 ratio
same,ratio of IC50 to that of the control peptide,[3],11.7 ratio
CIIHRGKPFQLEA (modifications not checked) [HDM20],ratio of IC50 to that of the control peptide,[8],2.37
same,ratio of IC50 to that of the control peptide,[9],1.1
same,ratio of IC50 to that of the control peptide,[10],28
same,ratio of IC50 to that of the control peptide,[11],242
LDMRNIQVRGLKQ [HDM33],ratio of IC50 to that of the control peptide,[12],263 ratio
same,ratio of IC50 to that of the control peptide,[7],46.5 ratio
same,ratio of IC50 to that of the control peptide,[3],41.5 ratio
TAIFQDTVRAEMTK [HDM48],ratio of IC50 to that of the control peptide,[7],15.7 ratio
same,ratio of IC50 to that of the control peptide,[3],13.6 ratio
same,ratio of IC50 to that of the control peptide,[5],211 ratio
RTVTPIRMQGGCG [HDM02],ratio of IC50 to that of the control peptide,[4],0.03 ratio
same,ratio of IC50 to that of the control peptide,[6],80 ratio
DTVRAEMTKVLAP [HDM49],ratio of IC50 to that of the control peptide,[4],1.7 ratio
same,ratio of IC50 to that of the control peptide,[6],671 ratio
B1,ratio of IC50 to that of the control peptide,[13],0.97 ratio
RNIQVRGLKQMKRVG [HDM34],ratio of IC50 to that of the control peptide,[12],3.7 ratio
same,ratio of IC50 to that of the control peptide,[6],769 ratio
same,ratio of IC50 to that of the control peptide,[3],3.38 ratio
IDLRQMRTVTPIR [HDM01],ratio of IC50 to that of the control peptide,[7],16 ratio
same,ratio of IC50 to that of the control peptide,[5],19.2 ratio
